# Results from patent publication US20070212363A1 (US Dept. of Health and Human Services, published 2007).
# B1: scFv m9 (scFv)
# scFv: VLTQSPGTLSLSAGERATLSCRASQSVSSGSLAWYQQKPGQAPRLLIYGASTRATGIPDRFSGSGSGTDFTLTIGRLEPEDLAVYYCQQYGTSPYTFGQGTKLEIKRTGGGGSGGGGSGGGGSVQLLEQSGAEVKKPGSSVQVSCKAFGGTFSMYGFNWVRQAPGHGLEWMGGIIPIFGTTNYAQKFRGRVTFTADQATSTAYMELTNLRSDDTAVYYCARDFGPDWEGGDSYDGSGRGFFDFWGQGTLVNVSS
# Experiments:
# Assay in all cases: cell-based or functional assay
# [1] = molecular target: T1, HIV-1 JR-FL envelope glycoprotein (Env) (HIV-1 strain JR-FL)
# [2] = molecular target: HIV-1 AD8 envelope glycoprotein (Env) (HIV-1 strain AD8)
# [3] = molecular target: HIV-1 IIIB envelope glycoprotein (Env) (HIV-1 strain IIIB)
# [4] = molecular target: T1, HIV-1 JR-FL envelope glycoprotein (Env); remark: listed apart in the source
# [5] = molecular target: HIV-1 AD8 envelope glycoprotein (Env) (HIV-1 strain AD8); remark: listed apart in the source
# [6] = molecular target: HIV-1 IIIB envelope glycoprotein (Env) (HIV-1 strain IIIB); remark: listed apart in the source
binder,measurement,setting,value
B1,"percentage of maximal infection, U87.CD4.CCR5.CXCR4 cells, 100 µg/mL antibody",[1],20%
same,"percentage of maximal infection, U87.CD4.CCR5.CXCR4 cells, 100 µg/mL antibody",[2],6.1%
same,"percentage of maximal infection, U87.CD4.CCR5.CXCR4 cells, 100 µg/mL antibody",[3],12%
same,Neutralizing activity (percentage) at 100 µg/mL,[4],90%
same,Neutralizing activity (percentage) at 100 µg/mL,[5],100%
same,Neutralizing activity (percentage) at 100 µg/mL,[6],100%
